# Test results: the supplement of paper PMC10065799, “High-throughput profiling of sequence recognition by tyrosine kinases and SH2 domains using bacterial peptide display” (eLife, 2023)
# Biological target: EPHB2 (UniProt P29323)
# Experiment: phosphorylation enrichment, bacterial display (enrichment ratio); higher = better substrate or ligand; peptides without Tyr show the background
# 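Also: 11-residue human phosphosite peptides and single-mutation variants displayed on the E. coli surface, counted by deep sequencing, each peptide's frequency after selection divided by its frequency in the unselected input library; frequency after pTyr selection over input frequency; kinase dosed for 20-30% of maximal phosphorylation in three min.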
# Sequence of EPHB2 (P29323 whole entry, looked up): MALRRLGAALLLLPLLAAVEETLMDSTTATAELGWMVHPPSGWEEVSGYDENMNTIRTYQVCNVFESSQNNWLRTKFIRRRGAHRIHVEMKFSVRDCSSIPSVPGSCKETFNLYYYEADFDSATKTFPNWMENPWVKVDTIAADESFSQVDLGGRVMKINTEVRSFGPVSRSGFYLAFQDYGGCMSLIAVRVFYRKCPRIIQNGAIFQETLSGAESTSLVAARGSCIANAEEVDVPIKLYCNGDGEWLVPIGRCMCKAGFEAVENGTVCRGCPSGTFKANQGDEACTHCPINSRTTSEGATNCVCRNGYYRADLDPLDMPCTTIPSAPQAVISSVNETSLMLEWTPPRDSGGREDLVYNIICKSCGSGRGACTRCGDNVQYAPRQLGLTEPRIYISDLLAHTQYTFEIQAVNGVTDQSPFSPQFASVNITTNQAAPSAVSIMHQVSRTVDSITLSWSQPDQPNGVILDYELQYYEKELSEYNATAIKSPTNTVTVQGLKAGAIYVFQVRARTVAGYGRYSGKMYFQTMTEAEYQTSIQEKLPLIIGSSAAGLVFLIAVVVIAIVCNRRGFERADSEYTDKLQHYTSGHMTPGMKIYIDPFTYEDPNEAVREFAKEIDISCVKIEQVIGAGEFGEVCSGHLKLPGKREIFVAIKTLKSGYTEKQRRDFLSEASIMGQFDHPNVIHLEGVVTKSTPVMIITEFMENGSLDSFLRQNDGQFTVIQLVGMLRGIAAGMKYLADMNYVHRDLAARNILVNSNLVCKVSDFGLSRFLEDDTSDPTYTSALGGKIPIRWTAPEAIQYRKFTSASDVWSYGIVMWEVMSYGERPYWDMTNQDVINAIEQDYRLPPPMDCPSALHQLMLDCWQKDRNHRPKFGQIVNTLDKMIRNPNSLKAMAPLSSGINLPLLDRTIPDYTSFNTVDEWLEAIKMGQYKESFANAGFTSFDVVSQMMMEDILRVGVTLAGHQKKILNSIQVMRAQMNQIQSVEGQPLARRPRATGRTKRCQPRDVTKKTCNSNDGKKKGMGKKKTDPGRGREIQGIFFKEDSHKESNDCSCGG
row,Sequence,phosphorylation enrichment
1,QRRLVYFEGGA [RYR1_Y245_YF],0.995
2,TFACSYTPVKA [FLNB_Y708_YF],0.577
3,RETPLYKACER [ASB2_Y162],0.573
4,DVYVSYDCGKS [SORL1_Y139_Y141C],1.93
5,PSELYYSKISP [SMG1_Y2254_G2258S],3.13
6,NEKNIYGVPLM [BMPR2_Y247_R248G],1.7
7,YPRTGYSVPYG [TGM1_Y370_L366P],0.519
8,FGSGNYNDFGN [HNRNPA2B1_Y300_YF],0.544
9,INPIIYAFVGE [CCR5_Y297],9.51
10,KLIMECLPYGS [JAK2_Y931_Y931C],0.649
11,FGVVGYLAIVF [RNF175_Y155_M159V],0.691
12,ADDSFYTVRSA [ZAP70_Y493_A495V_YF],0.478
13,ERNTVYSSSGV [NELL2_Y350],0.379
14,FGAHKYHPLPV [OAT_Y55_N54K_YF],0.468
15,WFPYTYVEEDE [VAV3_Y842_S840Y],0.773
16,EVNETYVPKEF [ALB_Y521_D518N],0.543
17,VAFVFYKSIGP [ADGRL4_Y302_YF],0.571

row,Sequence,phosphorylation enrichment
1,SILAVYSKDIF [PANK2_Y400_N404I_YF],0.494
2,LARDMCDKEYY [MET_Y1230_Y1230C],1.01
3,DNQYAYLKAII [HNF4A_Y288_E285Q],0.549
4,AEPPDYSPVTH [ADGRG2_Y285],0.582
5,HFPDVYAREQL [ALX3_Y181_YF],0.703
6,RRNNSYTCYTA [SLC20A2_Y386],0.678
7,LLIVEYAKFGS [RET_Y806_YF],1.72
8,RLVVVYPWTQR [HBB_Y36_L33V],1.23
9,SEHLIYLEFKS [RASGRP1_Y215_T214I],1.04
10,LDLSFYTTSSS [EMD_Y182_P183T_YF],1.29
11,SVMAEYGLYGA [VSX2_Y219],1.53
12,CTTIHDNFMCN [TP53_Y234_Y234D_YF],0.512
13,LRKQDYQEILD [SLC35G2_Y403],0.379
14,RLRIDYERVSQ [DSP_Y1542],0.613
15,YHLLPYTIRAM [PARS2_Y93_V95I],0.873
16,PFNAEYGGGGG [AKR1B10_Y316],0.693

# Biological target: EPHB1 (UniProt P54762)
# Sequence (P54762 whole entry, looked up): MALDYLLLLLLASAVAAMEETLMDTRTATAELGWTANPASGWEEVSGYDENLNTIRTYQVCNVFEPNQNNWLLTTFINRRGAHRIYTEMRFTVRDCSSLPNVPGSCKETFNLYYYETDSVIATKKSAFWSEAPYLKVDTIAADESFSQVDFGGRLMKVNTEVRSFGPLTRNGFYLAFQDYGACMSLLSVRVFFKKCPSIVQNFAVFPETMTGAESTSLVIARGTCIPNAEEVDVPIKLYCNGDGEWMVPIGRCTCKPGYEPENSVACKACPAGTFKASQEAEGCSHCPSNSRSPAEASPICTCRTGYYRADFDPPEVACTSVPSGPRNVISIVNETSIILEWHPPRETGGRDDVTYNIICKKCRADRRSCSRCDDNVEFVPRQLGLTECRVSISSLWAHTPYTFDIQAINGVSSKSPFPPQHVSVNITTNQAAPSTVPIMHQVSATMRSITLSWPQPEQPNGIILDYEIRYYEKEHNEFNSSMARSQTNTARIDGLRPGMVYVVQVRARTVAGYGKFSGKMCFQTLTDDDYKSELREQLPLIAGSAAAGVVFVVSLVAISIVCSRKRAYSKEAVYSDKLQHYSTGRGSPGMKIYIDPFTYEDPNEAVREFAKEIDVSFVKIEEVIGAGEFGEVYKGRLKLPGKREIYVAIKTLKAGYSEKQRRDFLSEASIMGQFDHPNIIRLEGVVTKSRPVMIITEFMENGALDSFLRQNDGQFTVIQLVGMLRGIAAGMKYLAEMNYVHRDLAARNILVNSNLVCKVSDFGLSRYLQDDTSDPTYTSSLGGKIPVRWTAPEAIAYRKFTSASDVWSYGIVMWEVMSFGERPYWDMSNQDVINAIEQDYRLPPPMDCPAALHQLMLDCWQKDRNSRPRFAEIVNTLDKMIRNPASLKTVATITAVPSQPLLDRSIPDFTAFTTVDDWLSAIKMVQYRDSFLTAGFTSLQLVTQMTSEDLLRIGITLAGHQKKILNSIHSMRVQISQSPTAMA
# Experiment: as above
row,Sequence,phosphorylation enrichment
1,QRRLVYFEGGA [RYR1_Y245_YF],1.18
2,TFACSYTPVKA [FLNB_Y708_YF],0.527
3,RETPLYKACER [ASB2_Y162],0.441
4,DVYVSYDCGKS [SORL1_Y139_Y141C],1.47
5,PSELYYSKISP [SMG1_Y2254_G2258S],6.25
6,NEKNIYGVPLM [BMPR2_Y247_R248G],0.431
7,YPRTGYSVPYG [TGM1_Y370_L366P],0.418
8,FGSGNYNDFGN [HNRNPA2B1_Y300_YF],1.97
9,INPIIYAFVGE [CCR5_Y297],10.7
10,KLIMECLPYGS [JAK2_Y931_Y931C],0.564
11,FGVVGYLAIVF [RNF175_Y155_M159V],0.811
12,ADDSFYTVRSA [ZAP70_Y493_A495V_YF],0.439
13,ERNTVYSSSGV [NELL2_Y350],0.502
14,FGAHKYHPLPV [OAT_Y55_N54K_YF],0.375
15,WFPYTYVEEDE [VAV3_Y842_S840Y],1.16
16,EVNETYVPKEF [ALB_Y521_D518N],0.584
17,VAFVFYKSIGP [ADGRL4_Y302_YF],0.663

row,Sequence,phosphorylation enrichment
1,SILAVYSKDIF [PANK2_Y400_N404I_YF],0.477
2,LARDMCDKEYY [MET_Y1230_Y1230C],0.853
3,DNQYAYLKAII [HNF4A_Y288_E285Q],0.562
4,AEPPDYSPVTH [ADGRG2_Y285],0.817
5,HFPDVYAREQL [ALX3_Y181_YF],0.619
6,RRNNSYTCYTA [SLC20A2_Y386],1.81
7,LLIVEYAKFGS [RET_Y806_YF],5.93
8,RLVVVYPWTQR [HBB_Y36_L33V],0.575
9,SEHLIYLEFKS [RASGRP1_Y215_T214I],1.58
10,LDLSFYTTSSS [EMD_Y182_P183T_YF],1.04
11,SVMAEYGLYGA [VSX2_Y219],0.732
12,CTTIHDNFMCN [TP53_Y234_Y234D_YF],0.544
13,LRKQDYQEILD [SLC35G2_Y403],0.632
14,RLRIDYERVSQ [DSP_Y1542],1.25
15,YHLLPYTIRAM [PARS2_Y93_V95I],1.17
16,PFNAEYGGGGG [AKR1B10_Y316],1.35

# Tested on: Fer (mouse)
# Experiment: as above
row,Sequence,phosphorylation enrichment
1,QRRLVYFEGGA [RYR1_Y245_YF],1.33
2,TFACSYTPVKA [FLNB_Y708_YF],0.449
3,RETPLYKACER [ASB2_Y162],0.504
4,DVYVSYDCGKS [SORL1_Y139_Y141C],0.985
5,PSELYYSKISP [SMG1_Y2254_G2258S],23.8
6,NEKNIYGVPLM [BMPR2_Y247_R248G],3.26
7,YPRTGYSVPYG [TGM1_Y370_L366P],0.383
8,FGSGNYNDFGN [HNRNPA2B1_Y300_YF],0.362
9,INPIIYAFVGE [CCR5_Y297],6.77
10,KLIMECLPYGS [JAK2_Y931_Y931C],0.448
11,FGVVGYLAIVF [RNF175_Y155_M159V],0.649
12,ADDSFYTVRSA [ZAP70_Y493_A495V_YF],0.489
13,ERNTVYSSSGV [NELL2_Y350],0.359
14,FGAHKYHPLPV [OAT_Y55_N54K_YF],0.441
15,WFPYTYVEEDE [VAV3_Y842_S840Y],0.899
16,EVNETYVPKEF [ALB_Y521_D518N],0.518
17,VAFVFYKSIGP [ADGRL4_Y302_YF],0.595

row,Sequence,phosphorylation enrichment
1,SILAVYSKDIF [PANK2_Y400_N404I_YF],0.46
2,LARDMCDKEYY [MET_Y1230_Y1230C],0.897
3,DNQYAYLKAII [HNF4A_Y288_E285Q],0.64
4,AEPPDYSPVTH [ADGRG2_Y285],0.764
5,HFPDVYAREQL [ALX3_Y181_YF],0.561
6,RRNNSYTCYTA [SLC20A2_Y386],0.615
7,LLIVEYAKFGS [RET_Y806_YF],1.16
8,RLVVVYPWTQR [HBB_Y36_L33V],0.652
9,SEHLIYLEFKS [RASGRP1_Y215_T214I],0.69
10,LDLSFYTTSSS [EMD_Y182_P183T_YF],0.882
11,SVMAEYGLYGA [VSX2_Y219],3.74
12,CTTIHDNFMCN [TP53_Y234_Y234D_YF],0.465
13,LRKQDYQEILD [SLC35G2_Y403],0.434
14,RLRIDYERVSQ [DSP_Y1542],0.702
15,YHLLPYTIRAM [PARS2_Y93_V95I],0.464
16,PFNAEYGGGGG [AKR1B10_Y316],0.871

# Biological target: Hck (UniProt P08631)
# Sequence (P08631 whole entry, looked up): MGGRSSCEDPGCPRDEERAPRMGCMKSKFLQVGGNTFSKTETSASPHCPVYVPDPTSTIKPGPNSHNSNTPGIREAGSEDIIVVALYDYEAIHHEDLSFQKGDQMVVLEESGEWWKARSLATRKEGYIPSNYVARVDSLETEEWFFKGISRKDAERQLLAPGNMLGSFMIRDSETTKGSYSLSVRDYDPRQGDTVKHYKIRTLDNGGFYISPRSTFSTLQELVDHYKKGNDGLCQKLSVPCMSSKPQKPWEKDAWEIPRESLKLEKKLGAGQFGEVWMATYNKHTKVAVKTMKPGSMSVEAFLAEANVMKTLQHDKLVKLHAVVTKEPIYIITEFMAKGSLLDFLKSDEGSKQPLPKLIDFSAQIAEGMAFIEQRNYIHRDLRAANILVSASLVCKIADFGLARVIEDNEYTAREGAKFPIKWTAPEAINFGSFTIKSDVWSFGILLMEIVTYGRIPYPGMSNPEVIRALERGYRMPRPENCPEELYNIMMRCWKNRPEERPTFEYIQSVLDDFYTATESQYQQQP
# Experiment: as above
row,Sequence,phosphorylation enrichment
1,QRRLVYFEGGA [RYR1_Y245_YF],1.13
2,TFACSYTPVKA [FLNB_Y708_YF],0.562
3,RETPLYKACER [ASB2_Y162],0.577
4,DVYVSYDCGKS [SORL1_Y139_Y141C],3.12
5,PSELYYSKISP [SMG1_Y2254_G2258S],17.9
6,NEKNIYGVPLM [BMPR2_Y247_R248G],6.04
7,YPRTGYSVPYG [TGM1_Y370_L366P],0.453
8,FGSGNYNDFGN [HNRNPA2B1_Y300_YF],0.4
9,INPIIYAFVGE [CCR5_Y297],6.19
10,KLIMECLPYGS [JAK2_Y931_Y931C],0.512
11,FGVVGYLAIVF [RNF175_Y155_M159V],0.557
12,ADDSFYTVRSA [ZAP70_Y493_A495V_YF],1.22
13,ERNTVYSSSGV [NELL2_Y350],0.768
14,FGAHKYHPLPV [OAT_Y55_N54K_YF],0.474
15,WFPYTYVEEDE [VAV3_Y842_S840Y],0.616
16,EVNETYVPKEF [ALB_Y521_D518N],0.534
17,VAFVFYKSIGP [ADGRL4_Y302_YF],0.424

row,Sequence,phosphorylation enrichment
1,SILAVYSKDIF [PANK2_Y400_N404I_YF],0.765
2,LARDMCDKEYY [MET_Y1230_Y1230C],0.834
3,DNQYAYLKAII [HNF4A_Y288_E285Q],1.4
4,AEPPDYSPVTH [ADGRG2_Y285],0.598
5,HFPDVYAREQL [ALX3_Y181_YF],0.722
6,RRNNSYTCYTA [SLC20A2_Y386],0.523
7,LLIVEYAKFGS [RET_Y806_YF],1.25
8,RLVVVYPWTQR [HBB_Y36_L33V],0.646
9,SEHLIYLEFKS [RASGRP1_Y215_T214I],5.08
10,LDLSFYTTSSS [EMD_Y182_P183T_YF],0.999
11,SVMAEYGLYGA [VSX2_Y219],6.45
12,CTTIHDNFMCN [TP53_Y234_Y234D_YF],0.54
13,LRKQDYQEILD [SLC35G2_Y403],0.47
14,RLRIDYERVSQ [DSP_Y1542],0.531
15,YHLLPYTIRAM [PARS2_Y93_V95I],9.37
16,PFNAEYGGGGG [AKR1B10_Y316],1.66
